In patent publication US20030200555A1:

Target: 2081/anti-NF IgG
Assay: ECL (ORIGEN Analyzer), competition with biotinylated-SEVNF

- fold less effective in competition than SEVNF: 100 fold
Binder: SEVNL [SEVNL peptide]
